Laboratory results: patent US20160053025A1 (SAMSUNG ELECTRONICS, published 2016)
Substitutions are numbered along the chain they refer to.

B1: 4H10 (antibody, V domains shown)
VH: EVQLLESGGGLVQPGGSLRLSCAASGFTFSSYDMSWVRQAPGKGLEWVSLISPDSSSIYYADSVKGRFTISRDNSKNTLYLQMNSLRAEDTAVYYCAKDLISFWRGGFDYWGQGTLVTVSS
VL: QSVLTQPPSASGTPGQRVTISCSGSSSNIGSNYVNWYQQLPGTAPKLLIYADSNRPSGVPDRFSGSKSGTSASLAISGLRSEDEADYYCGSWDYSLSGYVFGGGTKLTVLG
notes: also called anti-Ang2 antibody 4H10
B2: FLAG-tagged hAng-2 (ligand)
chain: YNNFRKSMDSIGKKQYQVQHGSCSYTFLLPEMDNCRSSSSPYVSNAVQRDAPLEYDDSVQRLQVLENIMENNTQWLMKLENYIQDNMKKEMVEIQQNAVQNQTAVMIEIGTNLLNQTAEQTRKLTDVEAQVLNQTTRLELQLLEHSLSTNKLEKQILDQTSEINKLQDKNSFLEKKVLAMEDKHIIQLQSIKEEKDQLQVLVSKQNSIIEELEKKIVTATVNNSVLQKQQHDLMETVNNLLTMMSTSNSAKDPTVAKEEQISFRDCAEVFKSGHTTNGIYTLTFPNSTEEIKAYCDMEAGGGGWTIIQRREDGSVDFQRTWKEYKVGFGNPSGEYWLGNEFVSQLTNQQRYVLKIHLKDWEGNEAYSLYEHFYLSSEELNYRIHLKGLTGTAGKISSISQPGNDFSTKDGDNDKCICKCSQMLTGGWWFDACGPSNLNGMYYPQRQNTNKFNGIKWYYWKGSGYSLKATTMMIRPADF
notes: not shown: FLAG tag
B3: Ang2 protein (R&D systems) (ligand)
chain: B2 chain
notes: Ang2 as used in the hybridoma screen, the HUVEC assays and the complex ELISA; also called human Ang2 protein; Human Ang-2 protein
B4: h10D6-OPTI-1 (antibody, human IgG1, V domains shown)
VH: QVQLQESGPGLVKPSETLSLTCAVSGYSITSDYAWNWIRQPPGKGLEWMGKISYSGKTDYNPSLKSRSTISRDTSKNQFSLKLSSVTAADTAVYYCARGNFEGAMDYWGQGTLVTVSS
VL: DIQMTQSPSSLSASVGDRVTITCKASQSVSNDVAWYQQKPGKAPKLLIYYASNRYPGVPSRFSGSGSGTDFTLTISSLQPEDFATYYCQQDYSSPWTFGQGTKLEIK
B5: 10D6-HU1 (antibody, V domains shown)
VH: B4 VH with T30S, M49I, K51Y, S53N, K57N, S68V, R72V
VL: B4 VL
notes: Humanized antibody; also called humanized antibody 10D6-HU1
B6: 10D6-HU2 (antibody, V domains shown)
VH: B4 VH with K51Y, S53N, K57N
VL: B4 VL
notes: Humanized antibody; also called humanized antibody 10D6-HU2
B7: 10D6-HU5 (antibody, V domains shown)
VH: B4 VH with M49I, K51Y, S53N, K57N, S68V, R72V
VL: B4 VL
notes: Humanized antibody; also called humanized antibody 10D6-HU5
B8: h10D6-OPTI-2 (antibody, human IgG1, V domains shown)
VH: B4 VH with S53N, S55A, K57N
VL: B4 VL
B9: h10D6-OPTI-42 (antibody, human IgG1, V domains shown)
VH: B4 VH with M49I, K51Y, S53N, K57N, S68V, R72V
VL: B4 VL with A34H, Q90H, W96F
B10: h10D6-OPTI-43 (antibody, human IgG1, V domains shown)
VH: B4 VH
VL: B4 VL with A34H
B11: h10D6-OPTI-55 (antibody, human IgG1, V domains shown)
VH: B4 VH with S53N, S55A, K57N
VL: B4 VL with A34H
B12: h10D6-OPTI-63 (antibody, human IgG1, V domains shown)
VH: B4 VH
VL: B4 VL with S28F, N31T, A34H
B13: h10D6-OPTI-65 (antibody, human IgG1, V domains shown)
VH: B4 VH
VL: B4 VL with N53I, R54P
B14: h10D6-OPTI-67 (antibody, human IgG1, V domains shown)
VH: B4 VH
VL: B4 VL with A34H, N53I, R54P
B15: h10D6-OPTI-3 (antibody, human IgG1, V domains shown)
VH: EVQLVESGGGLVQPGGSLRLSCAASGYSITSDYAWNWVRQAPGKGLEWMGKISYSGKTDYNPSLKSRSTISRDTSKNTFYLQMNSLRAEDTAVYYCARGNFEGAMDYWGQGTLVTVSS
VL: B4 VL
B16: 10D6-HU3 (antibody, V domains shown)
VH: B15 VH with K51Y, S53N, K57N
VL: B4 VL
notes: Humanized antibody; also called humanized antibody 10D6-HU3
B17: h10D6-OPTI-4 (antibody, human IgG1, V domains shown)
VH: B15 VH with S53N, S55A, K57N
VL: B4 VL
B18: h10D6-OPTI-16 (antibody, human IgG1, V domains shown)
VH: B15 VH
VL: B4 VL with A34H
B19: h10D6-OPTI-17 (antibody, human IgG1, V domains shown)
VH: B15 VH with S53N, S55A, K57N
VL: B4 VL with A34H
B20: h10D6-OPTI-68 (antibody, human IgG1, V domains shown)
VH: B15 VH
VL: B4 VL with S28F, N31T, A34H
B21: h10D6-OPTI-70 (antibody, human IgG1, V domains shown)
VH: B15 VH
VL: B4 VL with N53I, R54P

What was measured:
FLAG-tagged hAng-2 = target: B2; assay: Ang2-Tie2 competition ELISA: plate coated with hTie2-Fc, 400 ng/ml FLAG-tagged hAng-2 with antibody at varied concentration, detection with anti-FLAG-HRP; blocked ligand/receptor: hTie2-Fc
Method: More specifically, MaxiSorp™ flat-bottom plate (Nunc) of 96-well was coated with hTie2-Fc (R&D Systems) which is a protein bound with 4 μg/ml of Fc of human IgG1. After that, the plate was washed five times with 0.05% (v/v) Tween-20-containing PBS (phosphate buffer saline) and then blocked with 1% (v/v) BSA (bovine serum albumin; Sigma)-containing PBS at a room temperature for 2 hour.
For Ang2:Tie2 competition ELISA, each anti-Ang2 antibody obtained in Example 2 was placed at various concentrations of 400 nM-0.001 nM into each well coated with the hTie-2/Fc fusion protein along with 1% (v/v) BSA and 400 ng/ml of a FLAG-tagged hAng-2 and then, the plate was allowed to react at a room temperature for 2 hours and washed five times with PBST. After that, an anti-FLAG antibody (Sigma) conjugated with HRP diluted in 1% (v/v) BSA-containing PBS at a ratio of 1:5,000 (v/v) was added in an amount of 100 μl to each well to react at a room temperature for 1 hour and then, the plate was washed five times with PBST. Lastly, 100 μl of TMB substrate (Cell Signaling) was added to each well of the plate to induce color development for 3 min. and then, the reaction was ceased by the addition of 100 μl of Stop solution (Cell Signaling) and OD450 values were measured on a plate reader (Molecular Devices). […]

BSA = target: T1, BSA (Bos taurus, UniProt P02769); assay: Complex ELISA: plate coated with BSA, FLAG-Ang2 0.25 ug/ml shown by 10D6 2 ug/ml and anti-mouse IgG-HRP, OD450
T1 construct: commercial preparation; also called Bovine serum albumin; Sigma
Method: (§1) A 96-well MaxiSorp™ flat-bottom plate (Nunc) was coated with 4 μg/ml of Tie2-Fc (R&D systems) or BSA (Sigma). Then, the plate was washed five times with 0.05% (v/v) Tween-20-containing PBS (Phosphate Buffer Saline) and blocked with 1% (v/v) BSA (Bovine serum albumin; Sigma)-containing PBS at a room temperature for 2 hours. 0.25 μg/ml of Ang2 and 2 μg/ml of 10D6 antibody were added to each well of the plate, which was allowed to react at a room temperature for 2 hours and then washed five times with PBST. After that, an anti-mouse IgG antibody (Sigma) conjugated with HRP diluted in 1% (v/v) BSA-containing PBS at a ratio of 1:5,000 (v/v) was added in an amount of 100 ul to each well to react at a room temperature for 1 hour and then, the plate was washed five times with PBST. Lastly, 100 ul (microliter) of TMB substrate (Cell Signaling) was added to each well of the plate to induce color development for 3 min. and then, the reaction was ceased by the addition of 100 ul of Stop solution (Cell Signaling) and OD450 values were measured on a plate reader (Molecular Devices).

hTie2-Fc (R&D Systems) = target: T2, hTie2-Fc (R&D Systems) (human, UniProt Q02763 23-745); assay: ELISA, Tie2-Fc coated, Ang2 and 10D6 added, detected with anti-mouse IgG-HRP
T2 construct: Bought fusion protein; also called hTie-2/Fc fusion protein; not shown: Fc of human IgG1
Method: as §1

[1] = target: T3, recombinant hAng-2 (C-His, R&D Systems) (human, UniProt O15123 19-496); assay: SPR, BIAcore T100; hAng2 (C-His) captured by anti-His antibody on CM5, antibody as analyte
T3 construct: Bought protein; also called human Ang-2 protein; C-terminal histidine-tagged human Ang2 (R&D Systems); not shown: C-terminal His tag
T3 sequence: B2 chain
Method: The binding affinity (KD values) of the antibodies to human Ang2 protein was measured by an SPR method using a BIAcore T100 (GE Healthcare). 25 μg/ml anti-His antibody was immobilized on a CM5 sensor chip (GE healthcare) using a pH 5.0 acetate solution and an amine coupling kit (GE Healthcare). 6 μg/ml of a recombinant hAng2 (C-His, R&D Systems) protein was flowed onto the chip to be captured at 100 to 200 RU levels.

T1 sequence (P02769 25-607 limits assumed): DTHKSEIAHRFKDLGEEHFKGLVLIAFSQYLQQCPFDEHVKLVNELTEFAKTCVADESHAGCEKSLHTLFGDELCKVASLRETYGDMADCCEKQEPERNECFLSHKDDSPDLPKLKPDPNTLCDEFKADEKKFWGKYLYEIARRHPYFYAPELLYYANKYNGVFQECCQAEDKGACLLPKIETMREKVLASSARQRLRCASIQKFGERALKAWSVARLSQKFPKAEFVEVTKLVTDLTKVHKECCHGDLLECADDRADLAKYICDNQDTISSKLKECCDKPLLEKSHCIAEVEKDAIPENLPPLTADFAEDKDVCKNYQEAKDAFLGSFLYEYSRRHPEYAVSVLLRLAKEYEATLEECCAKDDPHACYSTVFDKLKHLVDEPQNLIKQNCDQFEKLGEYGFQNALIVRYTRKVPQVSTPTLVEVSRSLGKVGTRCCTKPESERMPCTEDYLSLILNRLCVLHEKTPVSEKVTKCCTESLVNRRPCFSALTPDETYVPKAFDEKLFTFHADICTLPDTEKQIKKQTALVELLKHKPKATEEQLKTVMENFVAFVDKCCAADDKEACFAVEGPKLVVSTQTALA
T2 sequence (Q02763 23-745 limits assumed): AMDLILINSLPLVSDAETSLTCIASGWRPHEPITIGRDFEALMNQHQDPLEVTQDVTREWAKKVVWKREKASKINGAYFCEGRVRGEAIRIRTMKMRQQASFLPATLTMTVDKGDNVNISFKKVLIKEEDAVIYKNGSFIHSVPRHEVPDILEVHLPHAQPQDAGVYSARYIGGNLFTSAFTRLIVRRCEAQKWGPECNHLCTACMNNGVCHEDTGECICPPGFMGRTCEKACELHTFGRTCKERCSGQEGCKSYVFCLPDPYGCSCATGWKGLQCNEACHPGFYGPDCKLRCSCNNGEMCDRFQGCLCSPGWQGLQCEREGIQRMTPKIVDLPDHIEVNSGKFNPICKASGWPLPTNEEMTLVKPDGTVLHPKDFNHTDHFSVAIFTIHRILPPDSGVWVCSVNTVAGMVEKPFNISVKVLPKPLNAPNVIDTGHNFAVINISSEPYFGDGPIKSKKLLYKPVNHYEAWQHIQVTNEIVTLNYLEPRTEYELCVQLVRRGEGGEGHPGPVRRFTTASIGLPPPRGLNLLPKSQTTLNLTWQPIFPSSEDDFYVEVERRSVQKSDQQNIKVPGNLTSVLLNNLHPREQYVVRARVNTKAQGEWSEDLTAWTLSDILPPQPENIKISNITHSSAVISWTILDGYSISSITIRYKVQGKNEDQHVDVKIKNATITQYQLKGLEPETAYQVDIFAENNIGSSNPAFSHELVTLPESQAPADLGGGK

Binder: B1
- IC50 (read off the curve) (FLAG-tagged hAng-2): ~0.2 nM

Binder: B2
- binding result (BSA): no binding (tested: 0.25 ug/ml)

Binder: B3
- binding result (hTie2-Fc (R&D Systems)): binds

Binder: B4
- Kd [1]: 0.68 nM
- koff [1]: 0.000321 s⁻¹
- kon [1]: 474000 M⁻¹ s⁻¹

Binder: B5
- Kd [1]: 84 nM
- koff [1]: 0.0026 s⁻¹
- kon [1]: 30800 M⁻¹ s⁻¹

Binder: B6
- Kd [1]: 47 nM
- koff [1]: 0.00346 s⁻¹
- kon [1]: 73000 M⁻¹ s⁻¹

Binder: B7
- Kd [1]: 64 nM
- koff [1]: 0.00312 s⁻¹
- kon [1]: 48600 M⁻¹ s⁻¹

Binder: B8
- Kd [1]: 0.34 nM
- koff [1]: 0.000149 s⁻¹
- kon [1]: 424000 M⁻¹ s⁻¹

Binder: B9
- Kd [1]: 0.85 nM
- koff [1]: 0.000286 s⁻¹
- kon [1]: 336000 M⁻¹ s⁻¹

Binder: B10
- Kd [1]: 0.38 nM
- koff [1]: 0.000576 s⁻¹
- kon [1]: 1.53e+06 M⁻¹ s⁻¹

Binder: B11
- Kd [1]: 0.14 nM
- koff [1]: 8.49e-05 s⁻¹
- kon [1]: 621000 M⁻¹ s⁻¹

Binder: B12
- Kd [1]: 0.0277 nM
- koff [1]: 7.42e-05 s⁻¹
- kon [1]: 2.68e+06 M⁻¹ s⁻¹

Binder: B13
- koff [1]: 2.25e-05 s⁻¹

Binder: B14
- Kd [1]: 0.000129 nM
- koff [1]: 2.68e-07 s⁻¹
- kon [1]: 2.08e+06 M⁻¹ s⁻¹

Binder: B15
- Kd [1]: 0.49 nM
- koff [1]: 0.000307 s⁻¹
- kon [1]: 624000 M⁻¹ s⁻¹

Binder: B16
- Kd [1]: 43 nM
- koff [1]: 0.00194 s⁻¹
- kon [1]: 45000 M⁻¹ s⁻¹

Binder: B17
- Kd [1]: 0.33 nM
- koff [1]: 0.000246 s⁻¹
- kon [1]: 736000 M⁻¹ s⁻¹

Binder: B18
- Kd [1]: 0.92 nM
- koff [1]: 0.000443 s⁻¹
- kon [1]: 479000 M⁻¹ s⁻¹

Binder: B19
- Kd [1]: 0.76 nM
- koff [1]: 0.00035 s⁻¹
- kon [1]: 460000 M⁻¹ s⁻¹

Binder: B20
- Kd [1]: 0.317 nM
- koff [1]: 0.00017 s⁻¹
- kon [1]: 536000 M⁻¹ s⁻¹

Binder: B21
- Kd [1]: 0.437 nM
- koff [1]: 0.000116 s⁻¹
- kon [1]: 265000 M⁻¹ s⁻¹
